Data as given in the supplement of paper PMC11246515.
± gives the standard deviation of the averaged measurements.

Assay: total protein half-life in vivo (active degradation + dilution); higher = more stable protein
[1] = E. coli NCM3722 delta-clpP, growth: N-lim chemostat, doubling time 6 h
[2] = E. coli NCM3722 delta-hslV, growth: N-lim chemostat, doubling time 6 h
[3] = E. coli NCM3722 delta-lon, growth: N-lim chemostat, doubling time 6 h
[4] = E. coli NCM3722 delta-smpB, growth: N-lim chemostat, doubling time 6 h
[5] = wild type E. coli NCM3722, growth: C-lim chemostat, doubling time 3 h
[6] = wild type E. coli NCM3722, growth: C-lim chemostat, doubling time 12 h
[7] = wild type E. coli NCM3722, growth: N-lim chemostat, doubling time 12 h
[8] = wild type E. coli NCM3722, growth: P-lim chemostat, doubling time 12 h
[9] = E. coli NCM3722 delta-clpP delta-lon delta-hslV, growth: N-lim chemostat, doubling time 6 h
[10] = wild type E. coli NCM3722, growth: N-lim chemostat, doubling time 6 h
[11] = wild type E. coli NCM3722, growth: P-lim chemostat, doubling time 6 h
[12] = wild type E. coli NCM3722, growth: C-lim chemostat, doubling time 6 h

Sequence	total protein half-life in vivo [1] [h]	total protein half-life in vivo [2] [h]	total protein half-life in vivo [3] [h]	total protein half-life in vivo [4] [h]	total protein half-life in vivo [5] [h]	total protein half-life in vivo [6] [h]	total protein half-life in vivo [7] [h]	total protein half-life in vivo [8] [h]	total protein half-life in vivo [9] [h]	total protein half-life in vivo [10] [h]	total protein half-life in vivo [11] [h]	total protein half-life in vivo [12] [h]
MLKRFFITGTDTSVGKTVVSRALLQALASQGKTVAGYKPVAKGSKETPEGLRNKDALVLQSVSTIELPYEAVNPIALSEEESSVAHSCPINYTLISNGLANLTEKVDHVVVEGTGGWRSLMNDLRPLSEWVVQEQLPVLMVVGIQEGCINHALLTAQAIANDGLPLIGWVANRINPGLAHYAEIIDVLGKKLPAPLIGELPYLPRAEQRELGQYIRLAMLRSVLAVDRVTV [P0A6E9]	5.16 ± 1	2 ± 0.11	2.48	2.11 ± 0.046	2.11 ± 0.37	4.99 ± 0.23	3.5 ± 0.4	5.74 ± 0.84	–	–	–	–
MLKRYLVLSVATAAFSLPSLVNAAQQNILSVHILNQQTGKPAADVTVTLEKKADNGWLQLNTAKTDKDGRIKALWPEQTATTGDYRVVFKTGDYFKKQNLESFFPEIPVEFHINKVNEHYHVPLLLSQYGYSTYRGS	5.47 ± 0.54	5.53	5.8 ± 0.16	–	> 4	7.94 ± 2	8.97 ± 0.37	8.8 ± 0.6	5.28 ± 1.2	5.83 ± 0.21	4.42 ± 0.68	–
MLKSPLFWKMTSLFGAVLLLLIPIMLIRQVIVERADYRSDVEDAIRQSTSGPQKLVGPLIAIPVTELYTVQEEDKTVERKRSFIHFWLPESLMVDGNQNVEERKIGIYTGQVWHSDLTLKADFDVSRLSELNAPNITLGKPFIVISVGDARGIGVVKAPEVNGTALTIEPGTGLEQGGQGVHIPLPEGDWRKQNLKLNMALNLSGTGDLSVVPGGRNSEMTLTSNWPHPSFLGDFLPAKREVSESGFQAHWQSSWFANNLGERFASGNDTGWENFPAFSVAVTTPADQYQLTDRATKYAILLIALTFMAFFVFETLTAQRLHPMQYLLVGLSLVMFYLLLLALSEHTGFTVAWIIASLIGAIMNGIYLQAVLKGWCNSMLFTLALLLLDGVMWGLLNSADSALLLGTSVLVVALAGMMFVTRNIDWYAFSLPKMKASKEVTTDDELRIWK	–	–	–	–	–	–	1.65	5.81 ± 0.98	–	–	3.18 ± 0.29	–
MLLAGSSLLTLLDDIATLLDDISVMGKLAAKKTAGVLGDDLSLNAQQVSGVRANRELPVVWGVAKGSLINKVILVPLALIISAFIPWAITPLLMIGGAFLCFEGVEKVLHMLEARKHKEDPAQSQQRLEKLAAQDPLKFEKDKIKGAIRTDFILSAEIVAITLGIVAEAPLLNQVLVLSGIALVVTVGVYGLVGVIVKIDDLGYWLAEKSSALMQALGKGLLIIAPWLMKALSIVGTLAMFLVGGGIVVHGIAPLHHAIEHFAGQQSAVVAMILPTVLNLILGFIIGGIVVLGVKAVEKMRGQAH	–	5.53 ± 0.22	5.52 ± 0.47	5.54 ± 0.83	3.16 ± 0.37	10.3 ± 1.3	12.22 ± 0.064	10.4 ± 0.92	5.24 ± 0.46	5.79 ± 0.4	5.22 ± 0.29	5.92 ± 1.3
MLLATALLIVGLLLVVYSADRLVFAASILCRTFGIPPLIIGMTVVSIGTSLPEVIVSLAASLHEQRDLAVGTALGSNIINILLILGLAALVRPFTVHSDVLRRELPLMLLVSVVAGSVLYDGQLSRSDGIFLLFLAVLWLLFIVKLARQAERQGTDSLTREQLAELPRDGGLPVAFLWLGIALIIMPVATRMVVDNATVLANYFAISELTMGLTAIAIGTSLPELATAIAGVRKGENDIAVGNIIGANIFNIVIVLGLPALITPGEIDPLAYSRDYSVMLLVSIIFALLCWRRSPQPGRGVGVLLTGGFIVWLAMLYWLSPILVE	–	–	–	–	–	–	–	–	4.93	–	–	–
MLLNMMCGRQLSAISLCLAVTFAPLFNAQADEPEVIPGDSPVAVSEQGEALPQAQATAIMAGIQPLPEGAAEKARTQIESQLPAGYKPVYLNQLQLLYAARDMQPMWENRDAVKAFQQQLAEVAIAGFQPQFNKWVELLTDPGVNGMARDVVLSDAMMGYLHFIANIPVKGTRWLYSSKPYALATPPLSVINQWQLALDKGQLPTFVAGLAPQHPQYAAMHESLLALLCDTKPWPQLTGKATLRPGQWSNDVPALREILQRTGMLDGGPKITLPGDDTPTDAVVSPSAVTVETAETKPMDKQTTSRSKPAPAVRAAYDNELVEAVKRFQAWQGLGADGAIGPATRDWLNVTPAQRAGVLALNIQRLRLLPTELSTGIMVNIPAYSLVYYQNGNQVLDSRVIVGRPDRKTPMMSSALNNVVVNPPWNVPPTLARKDILPKVRNDPGYLESHGYTVMRGWNSREAIDPWQVDWSTITASNLPFRFQQAPGPRNSLGRYKFNMPSSEAIYLHDTPNHNLFKRDTRALSSGCVRVNKASDLANMLLQDAGWNDKRISDALKQGDTRYVNIRQSIPVNLYYLTAFVGADGRTQYRTDIYNYDLPARSSSQIVSKAEQLIR	5.32 ± 1	5.764 ± 0.032	5.39 ± 0.3	4.989 ± 0.017	3.03 ± 0.053	12.2 ± 1.1	8.84 ± 0.75	9.2 ± 1.2	5.42 ± 0.21	5.57 ± 0.65	4.75 ± 0.52	6.5 ± 0.17
MLLPWLILIPFIGGFLCWQTERFGVKVPRWIALITMGLTLALSLQLWLQGGYSLTQSAGIPQWQSEFDMPWIPRFGISIHLAIDGLSLLMVVLTGLLGVLAVLCSWKEIEKYQGFFHLNLMWILGGVIGVFLAIDMFLFFFFWEMMLVPMYFLIALWGHKASDGKTRITAATKFFIYTQASGLVMLIAILALVFVHYNATGVWTFNYEELLNTPMSSGVEYLLMLGFFIAFAVKMPVVPLHGWLPDAHSQAPTAGSVDLAGILLKTAAYGLLRFSLPLFPNASAEFAPIAMWLGVIGIFYGAWMAFAQTDIKRLIAYTSVSHMGFVLIAIYTGSQLAYQGAVIQMIAHGLSAAGLFILCGQLYERIHTRDMRMMGGLWSKMKWLPALSLFFAVATLGMPGTGNFVGEFMILFGSFQVVPVITVISTFGLVFASVYSLAMLHRAYFGKAKSQIASQELPGMSLRELFMILLLVVLLVLLGFYPQPILDTSHSAIGNIQQWFVNSVTTTRP [P0AFE8]	6.54 ± 0.28	5.66 ± 0.85	6.41 ± 0.17	6.818 ± 0.033	–	–	12.04 ± 0.017	–	7.36 ± 0.89	–	6.24 ± 0.25	–
